{"source": "the DeepSol protein solubility set", "data": [{"test": "soluble on expression in E. coli; label from the status in PepcDB or PDB records", "values": [{"sequence": "MSRPAASLGLMRMIEAVPDRLDGSPRQLRRFWSDEFKETAVEQACQPGVNMSAVARQIGILPSQLYRWRRELLASDKPGEAPAAVDPQSVAPDANPVVEIVIDGIVVRADRHIEEAHLQRVIRAVRSALEHHHHHH", "soluble on expression in E. coli": "soluble"}, {"sequence": "MSRPTLQVDLLVESFNYKAWSDRRTLDAIARIDAEAFPASLAFALQQLNHMAIVEELFRARLLGEPAPHQQTNSEVVPGYDVLRRRLEDSAAWFAGYVAELPLERRGEWLRFRFADGRDGGMTRQEILFHIVNHGTYHRGAIGHALDLAGAPRPADTYTLYIHSAQPERRE", "soluble on expression in E. coli": "not soluble"}, {"sequence": "MSRRRIRKFERPEEALLHLLDAAGIYRVGSRVWLHKPRVRELGFQYLAVETLVREYALAAEREYRGSVVYSKVYGGREYKILLGRGEEVAEASLADPSTVQRLLFSWRHLEELLPSPPLPAFVVDLSLKFMHTEEELSKLRLQIAVALSEVRKYLWDPHLVLTNMDPQTSGWISEVLGDNKVTISQSKPSEILWSMDADRVVILRPDAPQPLSGSEVLAADAFLIGGIVDRIPRPGVSRILDNLVPWGVPRRIELRGSVAGVPERINRIVEILLKARYKYPGNLEKAIITSMTKKDVLTRVYSEIIKRGRRVGSELVVEWSLYEDLSSWLPLTPEDFMLAAKRARARIEGAPRRDNALEHHHHHH", "soluble on expression in E. coli": "not soluble"}, {"sequence": "MSRSGEFCPRCGDEIPEGTDERPELAGAGGQRNSEHVLCDACYFEEFDLVDAPDTIQVRVCSRCGAVHKGNRWVDIGAEDYTDIAVEQVSEALGIHVDAQSVAWQVAPEQLDKNNIRMHAEFSGVIRGTPVTEEVTVPVRISRQTCKRCGKIAGGSFASIVQVRADGRDPTDDERERAEEIAQEYVAAREETGDRNAFITETKSVDDGLDMKISTNQMGLGIAKRITAQLGGSYSDSRRLISEDEDGQELYRMTYAVRLPRYRQGEVIDPEDGDGPVLVRSVQGNLKGVRLATGEDYEASFEAGETPDARRLGFREDGQQTTLVAIEDERAVQVLDPETFESKTVPRPDYLDIDADEVPVLKSHAGLHILPAADADTDELEHHHHHH", "soluble on expression in E. coli": "soluble"}, {"sequence": "MSRSKKSRKPGTNSNDQLVVVRTRSESELESRLRKKLKKRKGLKSGSRHSEGSESQVRQAAQKRDPRLGSKKPIPLIVAEPKKLNKQERKLAAEQELAMLEKDAQLNVLLDRLDNGEKLGIGLQKYVDEKLDRIEVLMEQLGLLDDEPEPAPAPQSKPTKKRKTEDDLLSEFEQLDVDKYQD", "soluble on expression in E. coli": "not soluble"}, {"sequence": "MSSDGEQDEENPILARHRREKKELRGKILAKKKAAKCGNKQMQKEAGAECEKMEKEMDERHKKELEEAKKPEESEAVPAENPEASTLSPPSPNPEGSDNDGEGPSSSAFYKTVKISNKAAKKQDKKKKTADKMKAAEAADKEAGKNQLSDRQMEKAAVKEMLAEDHMKMIDIPADGDCMYNAISHQLQEEGIEISVRKLRKRCGTYMREHSEDFRPFIEDMANMDSDSSWATYLGGVENVAEIGGVWGGELELKACSMIFEKTIVVYKQYGGRHTIGEEYSSPKDRALRVVFLRHAYSLGEHYNSTCPY", "soluble on expression in E. coli": "soluble"}, {"sequence": "MSSFVPNKEQTRTVLIFCFHLKKTAAESHRMLVEAFGEQVPTVKTCERWFQRFKSGDFDVDDKEHGKPPKRYEDAELQALLDEDDAQTQKQLAEQLEVSQQAVSNRLREMGKIQKVGRWVPHELNERQMERRKNTCEILLSRYKRKSFLHRIVTGDEKWIFFVNPKRKKSYVDPGQPATSTARPNRFGKKTMLCVWWDQSGVIYYELLKPGETVNAARYQQQLINLNRALQRKRPEYQKRQHRVIFLHDNAPSHTARAVRDTLETLNWEVLPHAAYSPDLAPSDYHLFASMGHALAEQRFDSYESVKKWLDEWFAAKDDEFYWRGIHKLPERWEKCVASDGKYFE", "soluble on expression in E. coli": "soluble"}, {"sequence": "MSSGKDFFVHSHALCESENIGKDSRVWAFAHILPGARLGSECNVCDNVFIENDVIIGDRVTLKCGVQVWDGITIEDDVFIGPNATFTNDLFPRSKVYPQTFARTIIRKGASLGANCTILPGITIGINAMVGAGAVVTRSVPPNAIVVGNPAKIIGYVDAKPVNANSETRAEQKAPGVTATSVKNVTLHTMNEVADIRGSLSAGEFERSVPFKTERYFLVYDVPTAETRGEHAHRICHQFLVAVKGSVHVVADDGVNREEFILDKPNQGIHLPPMTWGIQYRYSQDAVLLVFASHYYDAGDYIRNYEEFKSLIANAELEHHHHHH", "soluble on expression in E. coli": "soluble"}, {"sequence": "MSSISLIQPDRDLFSWPQYWAACFGPAPFLPMSREEMDQLGWDSCDIILVTGDAYVDHPSFGMAICGRMLEAQGFRVGIIAQPDWSSKDDFMRLGKPNLFFGVTAGNMDSMINRYTADRRLRHDDAYTPDNVAGKRPDRATLVYTQRCKEAWKDVPVILGGIEASLRRTAHYDYWSDTVRRSVLVDSKADMLMFGNGERPLVEVAHRLAMGEPISEIRDVRNTAIIVKEALPGWSGVDSTRLDTPGKIDPIPHPYGEDLPCADNKPVAPKKQEAKAVTVQPPRPKPWEKTYVLLPSFEKVKGDKVLYAHASRILHHETNPAVPAH", "soluble on expression in E. coli": "not soluble"}, {"sequence": "MSSKDKKPSKPSSSRGGIRTLSDLNRRSGPDSDSDSDGPQEYYTGGEKSGMLVQDPSKKDDVDEIFNQARQLGAVEGPLEPPPSSRSFTGTGRLLSGENVPTGNQQPEPVVHNIVFWSNGFTIDDGPLRKLDDPENASFLEVNDFHSIRKSECPKELEPADRRAPVHVNLMRKEEKCPERQKRRVSFQGVGRTLGGSNEGSGSSSPVAPDSAPIPIQTEPAPSQSLVIDETVPTTSIQLRLADGTRLVAKFNHHHTVNDIRGFIDSSRPGASLNYQLQTMGFPPKPLTDLTQTIEEAGLANSVVLQKF", "soluble on expression in E. coli": "soluble"}, {"sequence": "MSSKFRTEDAWIIGQRMAARLDHEAYPLHKAAFFNDTHSIVQLLRAGRSLSEKDTHGNTALHIATMLGHREAIAILLANNAPVRIKNIDGWNPLMESVSYGDRQIITEMLRKLKTQTNEKMSRGKPHLMKMFQDLGDFYMEFKWDFQSWIPLLSRILPSDVCLIYKKGNLLRMDTTLADFSERNWERGDITFLFNVDAPPGEQLVVMDNKTKVFQRGRREESEAEIDEEVDVLMSTDIVNAHMSTKTVGFKQAYSGWVFKHAREEQMGDFPVNFYSVEGLKLTTRKRREHLTSDDVKKNKSILHSLTSGHTVNDDEFSVEPPTPKIATPTGRLPTTWEEYSGAAPGAPPQMGRPQIVKTNEKQFKALVGMSEEFPLSVDVLVDLLEVVAPFKHLDKLRRFCSARLPPGFPVCVEIPLLATIAAKVTFQKFQFTNDIQDKMFTIPTSYREDPTRFPDL", "soluble on expression in E. coli": "not soluble"}, {"sequence": "MSSKNPVDEQPCCGSHEGSHQDPAPETLVVEKEVNNGEKKIRIAVVGCSHGEMDAIYETMTLIEQKNGYKFDLLICCGDYQAVRNYGDLPHMSIPPKYRSLQTFYKYYSGEQKAPVLTLFIGGNHEASGYLCELPNGGWVAPNIYYMGFANCIRFANLRIAGLSGIFSQGDFQFSHYERPSFSERDVKSAYHVRNVDMFRLRQLKSDNENKISNPIDIMLSHDWPGGIPDFGDKEWLFRKKDLFEADHNSGKLGNPSGMKLIYDCRPRYYLAAHLHIAFAALVPHKGSGSGRPQPTRFLSLDKPIPGRKFMQALELNVADDAKLELSYDPQWLAILRNTDLLTTGTKEQLILPDMASNRPCVYERKDFRPTAEELKEIEKLGDLTIRTDSFQQTAPPLKEITESSKNVPPSAYYRNPQSAEFCQWLGIRDLNQMLVEKTSEHVGTPYYMMTQDDANAKPNQDDVDFGDEDFVIDRGHTSDEPEAKKSRLDEDKFEAVPSE", "soluble on expression in E. coli": "soluble"}, {"sequence": "MSSLCLQRLQEERKKWRKDHPFGFYAKPVKKADGSMDLQKWEAGIPGKEGTNWAGGVYPITVEYPNEYPSKPPKVKFPAGFYHPNVYPSGTICLSILNEDQDWRPAITLKQIVLGVQDLLDSPNPNSPAQEPAWRSFSRNKAEYDKKVLLQAKQYSK", "soluble on expression in E. coli": "soluble"}, {"sequence": "MSSNDSSLMAGIIYYSQEKYFHHVQQAAAVGLEKFSNDPVLKFFKAYGVLKEEHIQDAISDLESIRHHPDVSLCSTMALIYAHKRCEIIDQEAIQELEYSLKEIRKTLSGTALYYAGLFLWLIGRHDKAKEYIDRMLKISRGFREAYVLRGWVDLTSDKPHTAKKAIEYLEQGIQDTKDVLGLMGKAMYFMMQQNYSEALEVVNQITVTSGSFLPALVLKMQLFLARQDWEQTVEMGHRILEKDESNIDACQILTVHELAREGNMTTVSSLKTQKVILETESRRNPS", "soluble on expression in E. coli": "not soluble"}, {"sequence": "MSSPKKNFKKPQPKTENQKQALNEERIAELKKSRILGKNRPFKKMIYVDTKAQRKQKHENVAFLKTLQENKESDVPKKRRGRKPKHAPLKEKNNLKLFDILEGSLKSHTENDDTNKVISLLVEVWEKKNKKKDNNSLSNKDIVNVLSKFELPDDEIIFVLDELR", "soluble on expression in E. coli": "soluble"}, {"sequence": "MSSQVSTSRGLPSPSKLGTFESPHTWQMSGPTGQAEAGSSDDQDIRLLSVSWNQDFGCFAAGTSNGFRIFNCDPFKETFRRDLKSGGFGIVEMLFRCNILALVGGGSNAHYPPNKVMIWDDHRSHCIGEFAFRSDVRAVKLGKDYIVIVLERKIYVYNFTDLKLLHQIETQSNPKGLCCLSHHSNTSVLACPGVHQGHVRVEHFGLKVTRMISAHDSHISCMALTMDGLLLATASMKGTLIRIFNTMDGTRLQEVRRGLDKADIYSIALSPNVQWLAVSSDKGTVHIFSLRVRVAGEDASNEQRSLEGPRMDHQNSSSSIDPLIQTNTGSNASSSLSFMKGILPKYFSSEWSFAQFHLPEVTRYIVAFGAQNTVMMVGLDGSFYRCSFDQVNGGQMLQKEYFRFIKADLTPLRTSAP", "soluble on expression in E. coli": "not soluble"}, {"sequence": "MSSSLFAPTIETIDYPFPPKPVPLSDAQKADYKARIKQLLIEKDAVLVAHYYTDPEIQALAEETGGCVSDSLEMARFGRDHPAKTLIVAGVKFMGETAKILSPEKTILMPTLEATCSLDLGCPIDKFSAFCDAHPDHTVVVYANTSAAVKARADWVVTSSIALEIVEHLDSEGKKIIWGPDRHLGSYIAKQTGAEMLMWQGDCIVHDEFKANALRDLKSVYPDAAILVHPESPASVVAMADAVGSTSQLIKAAQTMPNERFIVATDRGIFYKMQQAAPGKTLIEAPTGGNGATCKSCAHCPWMAMNGLKAIEASLSNSDKTTHEIFVDEDLRVKALIPLTRMLDFAKTLNMKVKGNA", "soluble on expression in E. coli": "soluble"}, {"sequence": "MSSSSFTTERPFTPELLSPAGTLKNMRYAFAYGADAVYAGQPRYSLRVRNNEFNHENLALGIQEAHALGKRFYVVVNIAPHNSKLKTFLRDLKPVIEMGPDALIMSDPGLIMMVRDAFPQMDIHLSVQANAVNWATVKFWQQMGLTRVILSRELSLEEIAEIRAQVPEMELEVFVHGALCMAYSGRCLLSGYINKRDPNQGTCTNACRWEYNVQEGKEDDVGNIVHIHQPIAVKNVEPTLGIGAPTDKVFVIEEAQRPGEYMTASEDEHGTYIMNSKDLRAIQHVERLTQLGVHSLKIEGRTKSFYYCARTAQVYRRAIDDAVAGKPFDPSLLTTLEGLAHRGYTEGFLRRHVHEEQQTYEYGYSVSERQQFVGEFTGVRREGLAEVLVKNKFSRGDSVELMTPKGNIQFTLESMQDKKGQPADIAPGNGHIMYLPIPEEIDVEYGLLIRNLNGTNSRNPHEKA", "soluble on expression in E. coli": "not soluble"}]}]}
